Numbering of substitutions follows the chain as printed.
B1: chimeric antibody VxP037-01LC-Pro/VxP037-01HC-Pro (antibody, human IgG1, kappa, V domains shown)
VH: EVQLQQFGAELVKPGASMKLSCKASGYTFTNYYVFWVKQRPGQGLEWIGDINPVNGDTNFNEKFKNKATLTVDKSSTTTYLQLSSLTSEDSAVYYCTRGGYTMDYWGQGTLVTVSS
VL: DVVMTQTPLSLSVSLGDQASISCRSSQSLVHSNGNTYLHWYLQKPGQSPKLLIYKVSYRFSGVPDRFSGSGSGTDFTLKISRVEAEDLGVYFCSQNTHVPRTFGQGTKVEIKR
notes: also called Chimera; VxP037-01LC/VxP037-01HC
B2: Clone 14 (pVxK7b-037-hum14-LC / pVxK7b-037-hum14-HC) (antibody, human IgG1, kappa)
heavy: not shown
light: DVVMTQSPLSLPVTLGQPASISCRSSQSLVHSNGNTYLHWYQQKPGKAPKLLIYKVSYRFSGVPDRFSGSGSGTDFTLKISRVEAEDVGVYYCSQNTHVPRTFGQGTKVEIKRTVAAPSVFIFPPSDEQLKSGTASVVCLLNNFYPREAKVQWKVDNALQSGNSQESVTEQDSKDSTYSLSSTLTLSKADYEKHKVYACEVTHQGLSSPVTKSFNRGEC
B3: Clone 19 (pVxK7b-037-hum19-LC / pVxK7b-037-hum19-HC) (antibody, human IgG1, kappa)
heavy: not shown
light: B2 light
B4: Clone 3 (pVxK7b-037-hum03-LC / pVxK7b-037-hum03-HC) (antibody, human IgG1, kappa)
heavy: not shown
light: B2 light
B5: Clone 20 (pVxK7b-037-hum20-LC / pVxK7b-037-hum20-HC) (antibody, human IgG1, kappa)
heavy: not shown
light: B2 light with V2I, S7T, L15P, Q17E, Q42L, K47Q, A48S, K50Q
B6: Clone 15 (pVxK7b-037-hum15-LC / pVxK7b-037-hum15-HC) (antibody, human IgG1, kappa, V domains shown)
VH: QVQLQESGPGLVKPSQTLSLTCTVSGYTFTNYYVFWVRQARGQRLEWIGDINPVNGDTNFNEKFKNRLTISKDTSKNQVVLTMTNMDPVDTATYYCARGGYTMDYWGQGTLVTVSS
VL: AIQLTQSPSSLSASVGDRVTITCRSSQSLVHSNGNTYLHWYQQKPGQAPRLLIYKVSYRFSGVPSRFSGSGSGTEFTLTISSLQPDDFATYYCSQNTHVPRTFGQGTKVEIKR
B7: Clone 6 (pVxK7b-037-hum06-LC / pVxK7b-037-hum06-HC) (antibody, human IgG1, kappa, V domains shown)
VH: B6 VH
VL: B6 VL with A1D, L4M, Q42L, A48S, R50Q, V63I, S65A, P85S, D86E, T90V
B8: Clone 21 (pVxK7b-037-hum21-LC / pVxK7b-037-hum21-HC) (antibody, human IgG1, kappa, V domains shown)
VH: B6 VH
VL: AIQLTQSPSSLSASVGDRVTITCRSSQSLVHSNGNTYLHWYQQKPGQAPRLLIYKVSYRFSGVPDRFSGSGSGTDFTLKISRVEAEDVGVYYCSQNTHVPRTFGQGTKVEIKR
B9: Clone 2 (pVxK7b-037-hum02-LC / pVxK7b-037-hum02-HC) (antibody, human IgG1, kappa, V domains shown)
VH: QVQLQESGPGLVKPSQTLSLTCTVSGYTFTNYYVFWVRQARGQRLEWIGDINPVNGDTNFNEKFKNRVTISADKSISTAYLQWSSLKASDTAMYYCARGGYTMDYWGQGTLVTVSS
VL: DVVMTQSPLSLPVTLGQPASISCRSSQSLVHSNGNTYLHWYQQKPGQAPRLLIYKVSYRFSGVPSRFSGSGSGTEFTLTISSLQPDDFATYYCSQNTHVPRTFGQGTKVEIKR
B10: Clone 22 (pVxK7b-037-hum22-LC / pVxK7b-037-hum22-HC) (antibody, human IgG1, kappa, V domains shown)
VH: B6 VH
VL: EIVLTQSPATLSVSPGERATLSCRSSQSLVHSNGNTYLHWYQQKPGQAPRLLIYKVSYRFSGVPSRFSGSGSGTDFTFTISSLEAEDAATYYCSQNTHVPRTFGQGTKVEIKR
B11: Clone 23 (pVxK7b-037-hum23-LC / pVxK7b-037-hum23-HC) (antibody, human IgG1, kappa)
heavy: not shown
light: B2 light with V2I, S7T, L15P, Q17E
B12: Clone 9 (pVxK7b-037-hum09-LC / pVxK7b-037-hum09-HC) (antibody, human IgG1, kappa)
heavy: not shown
light: B2 light
notes: also called Cl 9
B13: Clone 10 (pVxK7b-037-hum10-LC / pVxK7b-037-hum10-HC) (antibody, human IgG1, kappa, V domains shown)
VH: B6 VH
VL: B1 VL with V2I, S12P, S14T, L15P, D17E, Q18P, K50Q, L88V, F92Y

Biological target: T1, pig CD47 (pig, UniProt Q9GKE8 19-303)
T1 construct: whole, on cells; also called CD47 on porcine RBCs
T1 sequence (looked up): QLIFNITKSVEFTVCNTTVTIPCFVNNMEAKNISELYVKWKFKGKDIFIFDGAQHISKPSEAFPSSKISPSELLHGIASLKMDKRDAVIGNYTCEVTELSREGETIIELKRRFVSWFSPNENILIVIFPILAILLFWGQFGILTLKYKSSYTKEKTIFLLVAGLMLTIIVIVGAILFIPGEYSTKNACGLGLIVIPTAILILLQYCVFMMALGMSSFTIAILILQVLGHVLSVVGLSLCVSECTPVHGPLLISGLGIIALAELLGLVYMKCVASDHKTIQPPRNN
Assay: flow cytometry on RBCs, CHO supernatant 10 ng/ml
Experimental: (§1) RBCs are incubated for 60 minutes on ice with tissue culture supernatants containing the secreted humanized antibodies at a concentration of 10 ng/ml in a solution of phosphate buffered saline, pH 7.2, 2.5 mM EDTA (PBS+E), or with various concentrations of purified antibodies. Cells are then washed with cold PBS+E, and incubated for an additional hour on ice with FITC labeled donkey anti-human antibody (Jackson Immuno Research Labs, West Grove, Pa.; Catalogue #709-096-149) in PBS+E. Cells are then washed with PBS+E, and antibody binding is analyzed using a BD FACSAria Cell Sorter (Becton Dickinson) or a C6 Accuri Flow Cytometer (Becton Dickinson). Antibody binding is quantitated by comparison of mean fluorescence values relative to that of chimeric antibody >VxP037-01LC (SEQ ID NO:7))/>VxPO37-01HC (SEQ ID NO:57). The mean fluorescence value for each antibody is divided by the mean fluorescence value for the chimeric antibody.

Point of comparison: B3, “mean fluorescence relative to chimeric antibody” value 1.3 ratio. Against it:
- B1 — lower, 1 ratio
- B2 — higher, 1.4 ratio
- B4 — lower, 0.9 ratio
- B5 — higher, 1.7 ratio
- B6 — lower, 1.2 ratio
- B7 — lower, 1.1 ratio
- B8 — higher, 1.4 ratio
- B9 — lower, 1.2 ratio
- B10 — higher, 1.4 ratio
- B11 — higher, 1.7 ratio
- B12 — higher, 1.6 ratio
- B13 — higher, 1.5 ratio

Biological target: T2, human CD47 (human, UniProt Q08722 19-323)
T2 construct: whole, on cells; also called CD47 on human RBCs; CD47 on OV10 cells
T2 sequence (Q08722 19-323): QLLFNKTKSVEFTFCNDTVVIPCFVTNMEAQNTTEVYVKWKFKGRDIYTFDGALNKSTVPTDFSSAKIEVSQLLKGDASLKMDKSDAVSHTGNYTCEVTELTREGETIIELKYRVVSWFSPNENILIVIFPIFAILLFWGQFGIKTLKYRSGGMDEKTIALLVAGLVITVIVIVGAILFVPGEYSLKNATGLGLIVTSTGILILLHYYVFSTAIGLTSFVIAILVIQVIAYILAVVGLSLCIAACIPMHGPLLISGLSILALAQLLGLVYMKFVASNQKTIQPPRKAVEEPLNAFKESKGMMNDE
Assay: flow cytometry on RBCs, CHO supernatant 10 ng/ml
Experimental: as §1

Point of comparison: B11, “mean fluorescence relative to chimeric antibody” value 1.2 ratio. Against it:
- B1 — lower, 1 ratio
- B2 — lower, 1.1 ratio
- B3 — lower, 0.7 ratio
- B4 — lower, 0.7 ratio
- B5 — higher, 1.3 ratio
- B6 — lower, 1 ratio
- B7 — lower, 0.9 ratio
- B8 — the same, 1.2 ratio
- B9 — lower, 1 ratio
- B10 — lower, 1.1 ratio
- B12 — the same, 1.2 ratio
- B13 — lower, 1.1 ratio

Biological target: T3, rat CD47 (rat, UniProt P97829 19-303)
T3 construct: whole, on cells; also called CD47 on rat RBCs
T3 sequence (looked up): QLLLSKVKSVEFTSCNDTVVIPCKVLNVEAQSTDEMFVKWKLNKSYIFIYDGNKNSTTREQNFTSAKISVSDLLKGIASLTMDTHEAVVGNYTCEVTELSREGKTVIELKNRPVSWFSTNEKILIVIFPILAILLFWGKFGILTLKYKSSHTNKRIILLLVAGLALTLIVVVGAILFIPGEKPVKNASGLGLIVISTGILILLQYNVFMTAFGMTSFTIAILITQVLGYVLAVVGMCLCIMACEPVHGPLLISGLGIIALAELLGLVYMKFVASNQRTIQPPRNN
Assay: flow cytometry on RBCs, CHO supernatant 10 ng/ml
Experimental: as §1

Point of comparison: B2, “mean fluorescence relative to chimeric antibody” value 3.2 ratio. Against it:
- B1 — lower, 1 ratio
- B3 — lower, 2.6 ratio
- B4 — lower, 1.7 ratio
- B5 — lower, 1.9 ratio
- B6 — lower, 2.4 ratio
- B7 — lower, 2.1 ratio
- B8 — lower, 2.8 ratio
- B9 — lower, 2.6 ratio
- B10 — lower, 2.8 ratio
- B11 — higher, 3.3 ratio
- B12 — higher, 3.7 ratio
- B13 — lower, 2.9 ratio

Biological target: T4, dog CD47 (dog, UniProt A0A8I3PM61 19-310)
T4 construct: also called CD47 on dog RBCs
T4 sequence: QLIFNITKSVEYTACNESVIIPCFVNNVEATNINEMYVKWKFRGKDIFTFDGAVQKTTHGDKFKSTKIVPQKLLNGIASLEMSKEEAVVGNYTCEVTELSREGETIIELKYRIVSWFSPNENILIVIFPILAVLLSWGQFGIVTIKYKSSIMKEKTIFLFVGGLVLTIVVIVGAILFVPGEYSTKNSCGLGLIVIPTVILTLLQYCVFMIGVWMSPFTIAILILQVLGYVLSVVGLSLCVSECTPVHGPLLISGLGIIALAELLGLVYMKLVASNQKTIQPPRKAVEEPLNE
Assay: flow cytometry on RBCs, CHO supernatant 10 ng/ml
Experimental: as §1

Point of comparison: B9, “mean fluorescence relative to chimeric antibody” value 1 ratio. Against it:
- B1 — the same, 1 ratio
- B2 — higher, 1.3 ratio
- B3 — higher, 1.2 ratio
- B4 — lower, 0.9 ratio
- B5 — higher, 1.1 ratio
- B6 — higher, 1.1 ratio
- B7 — higher, 1.1 ratio
- B8 — higher, 1.1 ratio
- B10 — the same, 1 ratio
- B11 — higher, 1.1 ratio
- B12 — the same, 1 ratio
- B13 — higher, 1.1 ratio

Biological target: T5, mouse CD47 (mouse, UniProt Q61735 19-303)
T5 construct: whole, on cells; also called CD47 on mouse RBCs; CD47 on 4T1 cells
T5 sequence (looked up): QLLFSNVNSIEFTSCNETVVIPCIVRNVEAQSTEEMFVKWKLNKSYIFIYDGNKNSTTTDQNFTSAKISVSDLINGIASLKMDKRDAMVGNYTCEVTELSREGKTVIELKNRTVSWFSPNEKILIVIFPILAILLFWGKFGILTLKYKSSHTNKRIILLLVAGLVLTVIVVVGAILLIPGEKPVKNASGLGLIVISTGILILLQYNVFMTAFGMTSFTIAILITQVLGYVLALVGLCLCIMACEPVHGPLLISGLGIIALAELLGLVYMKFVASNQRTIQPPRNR
Assay: flow cytometry on RBCs, CHO supernatant 10 ng/ml
Experimental: as §1

Point of comparison: B3, “mean fluorescence relative to chimeric antibody” value 1 ratio. Against it:
- B1 — the same, 1 ratio
- B2 — higher, 1.5 ratio
- B4 — lower, 0.9 ratio
- B5 — higher, 1.5 ratio
- B6 — higher, 1.3 ratio
- B7 — higher, 1.2 ratio
- B8 — higher, 1.2 ratio
- B9 — higher, 1.2 ratio
- B10 — higher, 1.2 ratio
- B11 — higher, 1.4 ratio
- B12 — higher, 1.4 ratio
- B13 — higher, 1.2 ratio

— patent US20150274826A1 (ARCH ONCOLOGY, published 2015)
